From paper PMC10183053 (Journal of biomolecular structure & dynamics, 2022)
Like-named read-outs stand apart in the source and are kept apart here.

B1: human Hsp90α_293–714_W320A mutant (domain or fragment)
chain: not shown
B2: human Hsp90α_293–699 (wild type Hsp90α middle/C-terminal domain) (domain or fragment)
chain: not shown

Key:
crystal structure [1] = target: the molecule itself; assay: crystal structure
crystal structure [2] = target: the molecule itself; assay: crystal structure; remark: listed apart in the source

Row | Protein | stoichiometry N (crystal structure [1]) | stoichiometry N (crystal structure [2])
1 | B1 | 2 | –
2 | B2 | – | 6
